Ratio of PPM-2::GFP in coIP to FLAG::DLK-1 K162R immunoprecipitated data for 2 molecules are collected here from PMC4014440.

The target of the assay is FLAG epitope tagged DLK-1 K162R (FLAG::DLK-1L K162R) (C. elegans). As to the kind of experiment: co-IP; FLAG::DLK-1 K162R immunoprecipitated from 5 mg of transgenic whole worm lysate (0.1% NP-40 lysis buffer); wild-type or mutant PPM-2::GFP detected by anti-GFP immunoblot; bands quantified with Image J as ratio of PPM-2::GFP in coIP to FLAG::DLK-1 K162R immunoprecipitated. (In general: Immunoblotting shows a protein as a band on a membrane.)

B1: PPM-2::GFP R185A (phosphatase trapping mutant of PPM-2) (enzyme)
chain: MGQTLSEPVTKKESASCANENYLVGSSCMQGWRVDMEDAHTHLLSLPDDPKCAFFAVYDGHGGSKVSQYSGINLHKKVVAQKEFSEGNMKEAIEKGFLELDQQMRVDEETKDDVSGTTAVVVLIKEGDVYCGNAGDSRAVSSVVGEARPLSFDHKPSHETEARRIIAAGGWVEFNRVNGNLALSAALGDFAFKNCDTKPAEEQIVTAFPDVITDKLTPDHEFIVLACDGIWDVMTNQEVVDFVREKLAEKRDPQSICEELLTRCLAPDCQMGGLGCDNMTVVLVGLLHGQSPDTLFTKCARPAVFTGVNNEDGDQNQIQQDISRVINNFDGEQRVNAANQEEEEDDNEPAPANFQV
For the molecule B1, the ratio of PPM-2::GFP in coIP to FLAG::DLK-1 K162R immunoprecipitated is 1.5.

B2: PPM-2::GFP (GFP fusion protein of wild-type PPM-2) (enzyme)
chain: MGQTLSEPVTKKESASCANENYLVGSSCMQGWRVDMEDAHTHLLSLPDDPKCAFFAVYDGHGGSKVSQYSGINLHKKVVAQKEFSEGNMKEAIEKGFLELDQQMRVDEETKDDVSGTTAVVVLIKEGDVYCGNAGDSRAVSSVVGEARPLSFDHKPSHETEARRIIAAGGWVEFNRVNGNLALSRALGDFAFKNCDTKPAEEQIVTAFPDVITDKLTPDHEFIVLACDGIWDVMTNQEVVDFVREKLAEKRDPQSICEELLTRCLAPDCQMGGLGCDNMTVVLVGLLHGQSPDTLFTKCARPAVFTGVNNEDGDQNQIQQDISRVINNFDGEQRVNAANQEEEEDDNEPAPANFQV
Regarding B2, the ratio of PPM-2::GFP in coIP to FLAG::DLK-1 K162R immunoprecipitated amounted to 0.4.
